Experiments:
Type in all cases: ADME
[1] = molecular target: T1, UDP-glucuronosyltransferase 1A10 (Homo sapiens, UniProt Q9HAW8); test: Drug level assessed as human recombinant UGT1A10-mediated glucuronidation treated with irilone incubated for 5 mins prior to UDPGA addition measured after 90 mins by HPLC-DAD analysis; details: recombinant enzyme, 1.5 h
T1 sequence (Q9HAW8 whole entry): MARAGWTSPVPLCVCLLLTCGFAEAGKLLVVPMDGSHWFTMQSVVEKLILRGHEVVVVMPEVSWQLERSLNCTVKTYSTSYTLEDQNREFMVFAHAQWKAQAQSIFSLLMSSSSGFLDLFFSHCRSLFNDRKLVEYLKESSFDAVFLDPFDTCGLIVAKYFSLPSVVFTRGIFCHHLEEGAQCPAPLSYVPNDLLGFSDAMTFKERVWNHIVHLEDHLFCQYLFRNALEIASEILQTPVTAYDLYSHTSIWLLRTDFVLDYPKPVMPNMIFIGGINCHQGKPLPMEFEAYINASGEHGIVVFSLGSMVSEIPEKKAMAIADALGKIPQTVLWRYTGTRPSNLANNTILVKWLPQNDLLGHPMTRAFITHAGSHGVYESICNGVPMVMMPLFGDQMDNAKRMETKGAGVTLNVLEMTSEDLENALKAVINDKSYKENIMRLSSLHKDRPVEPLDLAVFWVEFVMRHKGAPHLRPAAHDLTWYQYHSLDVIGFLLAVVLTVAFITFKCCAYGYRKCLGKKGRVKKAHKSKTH

[2] = molecular target: T2, UDP-glucuronosyltransferase 1A8 (Homo sapiens, UniProt Q9HAW9); test: Drug level assessed as human recombinant UGT1A8-mediated glucuronidation treated with 25 uM irilone incubated for 5 mins prior to UDPGA addition measured after 90 mins by HPLC-DAD analysis; details: recombinant enzyme, 1.5 h
T2 sequence (Q9HAW9 whole entry): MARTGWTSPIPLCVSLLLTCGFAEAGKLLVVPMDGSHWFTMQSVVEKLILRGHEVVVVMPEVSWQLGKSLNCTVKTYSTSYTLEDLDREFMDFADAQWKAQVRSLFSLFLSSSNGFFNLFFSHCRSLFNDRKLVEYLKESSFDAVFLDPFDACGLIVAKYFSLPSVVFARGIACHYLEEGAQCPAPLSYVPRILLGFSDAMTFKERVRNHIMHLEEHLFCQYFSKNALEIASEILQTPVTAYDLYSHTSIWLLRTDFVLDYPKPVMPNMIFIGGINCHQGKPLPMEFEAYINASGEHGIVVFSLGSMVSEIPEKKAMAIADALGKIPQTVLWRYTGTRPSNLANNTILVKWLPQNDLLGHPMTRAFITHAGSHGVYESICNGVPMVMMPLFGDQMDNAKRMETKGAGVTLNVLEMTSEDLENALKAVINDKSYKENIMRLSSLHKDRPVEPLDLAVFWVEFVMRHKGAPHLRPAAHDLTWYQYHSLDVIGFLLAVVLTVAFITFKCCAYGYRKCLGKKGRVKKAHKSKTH

[3] = molecular target: T3, UDP-glucuronosyltransferase 1A1 (Homo sapiens, UniProt P22309); test: Drug level assessed as human recombinant UGT1A1-mediated glucuronidation treated with 25 uM irilone incubated for 5 mins prior to UDPGA addition measured after 90 mins by HPLC-DAD analysis; details: recombinant enzyme, 1.5 h
T3 sequence (P22309 whole entry): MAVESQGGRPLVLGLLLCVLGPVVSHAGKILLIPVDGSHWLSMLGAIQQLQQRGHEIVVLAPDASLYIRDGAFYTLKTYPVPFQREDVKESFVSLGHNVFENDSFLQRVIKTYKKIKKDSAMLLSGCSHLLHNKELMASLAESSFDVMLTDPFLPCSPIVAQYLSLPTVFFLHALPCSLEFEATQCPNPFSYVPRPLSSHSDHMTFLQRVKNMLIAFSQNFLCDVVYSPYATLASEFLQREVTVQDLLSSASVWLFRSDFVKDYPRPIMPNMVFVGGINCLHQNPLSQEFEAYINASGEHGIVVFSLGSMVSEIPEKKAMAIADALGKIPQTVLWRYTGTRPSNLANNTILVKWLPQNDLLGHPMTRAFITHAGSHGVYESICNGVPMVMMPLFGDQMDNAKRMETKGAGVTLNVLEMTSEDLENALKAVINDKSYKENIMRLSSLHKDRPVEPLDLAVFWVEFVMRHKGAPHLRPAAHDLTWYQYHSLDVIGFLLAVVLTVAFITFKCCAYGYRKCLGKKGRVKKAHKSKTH

[4] = molecular target: T4, UDP-glucuronosyltransferase 1A7 (Homo sapiens, UniProt Q9HAW7); test: Drug level assessed as human recombinant UGT1A7-mediated glucuronidation treated with 25 uM irilone incubated for 5 mins prior to UDPGA addition measured after 90 mins by HPLC-DAD analysis; details: recombinant enzyme, 1.5 h
T4 sequence (Q9HAW7 whole entry): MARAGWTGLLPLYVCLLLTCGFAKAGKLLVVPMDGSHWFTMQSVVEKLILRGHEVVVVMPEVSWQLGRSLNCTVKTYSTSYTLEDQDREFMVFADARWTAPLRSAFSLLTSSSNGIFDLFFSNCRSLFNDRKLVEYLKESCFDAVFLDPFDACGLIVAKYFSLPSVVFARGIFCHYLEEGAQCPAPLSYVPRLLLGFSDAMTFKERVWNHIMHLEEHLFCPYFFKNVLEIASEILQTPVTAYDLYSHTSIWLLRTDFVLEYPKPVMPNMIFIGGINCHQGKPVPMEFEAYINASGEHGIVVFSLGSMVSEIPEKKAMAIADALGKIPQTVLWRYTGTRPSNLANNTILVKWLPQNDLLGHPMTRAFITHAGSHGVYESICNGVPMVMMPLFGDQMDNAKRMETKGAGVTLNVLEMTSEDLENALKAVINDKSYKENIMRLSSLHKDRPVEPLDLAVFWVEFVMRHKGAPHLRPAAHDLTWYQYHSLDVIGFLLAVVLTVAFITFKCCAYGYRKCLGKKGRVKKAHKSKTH

[5] = substrate: O=c1c(-c2ccc(O)cc2)coc2cc3c(c(O)c12)OCO3; test: Activity of human recombinant UGT1A9 assessed as IRI-O-5-monoglucuronide formation incubated for 5 mins prior to UDPGA addition measured after 90 mins by Eadie-Hoftsee plot analysis
[6] = substrate: O=c1c(-c2ccc(O)cc2)coc2cc3c(c(O)c12)OCO3; test: Activity of human recombinant UGT1A7 assessed as IRI-O-5-monoglucuronide formation incubated for 5 mins prior to UDPGA addition measured after 90 mins by Eadie-Hoftsee plot analysis
[7] = substrate: O=c1c(-c2ccc(O)cc2)coc2cc3c(c(O)c12)OCO3; test: Activity of human recombinant UGT1A1 assessed as IRI-O-4'-monoglucuronide formation incubated for 5 mins prior to UDPGA addition measured after 90 mins by Eadie-Hoftsee plot analysis
[8] = substrate: O=c1c(-c2ccc(O)cc2)coc2cc3c(c(O)c12)OCO3; test: Activity of human recombinant UGT1A1 assessed as IRI-O-5-monoglucuronide formation incubated for 5 mins prior to UDPGA addition measured after 90 mins by Eadie-Hoftsee plot analysis
[9] = substrate: O=c1c(-c2ccc(O)cc2)coc2cc3c(c(O)c12)OCO3; test: Activity of human recombinant UGT1A10 assessed as IRI-O-4'-monoglucuronide formation incubated for 5 mins prior to UDPGA addition measured after 90 mins by Eadie-Hoftsee plot analysis
[10] = substrate: O=c1c(-c2ccc(O)cc2)coc2cc3c(c(O)c12)OCO3; test: Activity of human recombinant UGT1A8 assessed as IRI-O-5-monoglucuronide formation incubated for 5 mins prior to UDPGA addition measured after 90 mins by Eadie-Hoftsee plot analysis
[11] = substrate: O=c1c(-c2ccc(O)cc2)coc2cc3c(c(O)c12)OCO3; test: Activity of human recombinant UGT1A8 assessed as IRI-O-4'-monoglucuronide formation incubated for 5 mins prior to UDPGA addition measured after 90 mins by Eadie-Hoftsee plot analysis

**Q.** `COc1c2c(cc3occ(-c4ccc(O[C@@H]5O[C@H](C(=O)O)[C@@H](O)[C@H](O)[C@H]5O)cc4)c(=O)c13)OCO2` was tested. Which Drug metabolism [1] did it give?
**A.** metabolite_detected

**Q.** How did the Drug metabolism [2] turn out when `O=C(O)[C@H]1O[C@@H](Oc2ccc(-c3coc4cc5c(c(O)c4c3=O)OCO5)cc2)[C@H](O)[C@@H](O)[C@@H]1O` was run?
**A.** metabolite_detected

**Q.** And the Drug metabolism [1]?
**A.** metabolite_detected

**Q.** What about the Drug metabolism [3] of the same molecule?
**A.** metabolite_detected

**Q.** What about the Drug metabolism [4] of the same molecule?
**A.** metabolite_detected

B1: UDP-glucuronosyltransferase 1A9 (Homo sapiens) (protein)
chain: MACTGWTSPLPLCVCLLLTCGFAEAGKLLVVPMDGSHWFTMRSVVEKLILRGHEVVVVMPEVSWQLGRSLNCTVKTYSTSYTLEDLDREFKAFAHAQWKAQVRSIYSLLMGSYNDIFDLFFSNCRSLFKDKKLVEYLKESSFDAVFLDPFDNCGLIVAKYFSLPSVVFARGILCHYLEEGAQCPAPLSYVPRILLGFSDAMTFKERVRNHIMHLEEHLLCHRFFKNALEIASEILQTPVTEYDLYSHTSIWLLRTDFVLDYPKPVMPNMIFIGGINCHQGKPLPMEFEAYINASGEHGIVVFSLGSMVSEIPEKKAMAIADALGKIPQTVLWRYTGTRPSNLANNTILVKWLPQNDLLGHPMTRAFITHAGSHGVYESICNGVPMVMMPLFGDQMDNAKRMETKGAGVTLNVLEMTSEDLENALKAVINDKSYKENIMRLSSLHKDRPVEPLDLAVFWVEFVMRHKGAPHLRPAAHDLTWYQYHSLDVIGFLLAVVLTVAFITFKCCAYGYRKCLGKKGRVKKAHKSKTH
**Q.** Which results are given for B1?
**A.** Km [5]: 5 µM; Vmax [5]: 0.00027 µmol/min/mg

B2: UDP-glucuronosyltransferase 1A7 (Homo sapiens) (protein)
chain: T4 sequence (Q9HAW7 whole entry)
**Q.** How did the Km [6] turn out when B2 was run?
**A.** 9.4 µM

**Q.** What about the Vmax [6] of the same molecule?
**A.** 4e-05 µmol/min/mg

B3: UDP-glucuronosyltransferase 1A1 (Homo sapiens) (protein)
chain: T3 sequence (P22309 whole entry)
**Q.** B3 was tested. Which Km [7] did it give?
**A.** 32.9 µM

**Q.** What about the Vmax [7] of the same molecule?
**A.** 0.00014 µmol/min/mg

**Q.** And the Km [8]?
**A.** 24.6 µM

**Q.** What about the Vmax [8] of the same molecule?
**A.** 0.00067 µmol/min/mg

B4: UDP-glucuronosyltransferase 1A10 (Homo sapiens) (protein)
chain: T1 sequence (Q9HAW8 whole entry)
**Q.** Which results are given for B4?
**A.** Km [9]: 10.3 µM; Vmax [9]: 0.00103 µmol/min/mg

B5: UDP-glucuronosyltransferase 1A8 (Homo sapiens) (protein)
chain: T2 sequence (Q9HAW9 whole entry)
**Q.** With B5 as the molecule, how does the Km [10] read?
**A.** 70.9 µM

**Q.** What about the Vmax [10] of the same molecule?
**A.** 0.001 µmol/min/mg

**Q.** What about the Km [11] of the same molecule?
**A.** 87.5 µM

**Q.** What about the Vmax [11] of the same molecule?
**A.** 0.00054 µmol/min/mg

From ChEMBL document CHEMBL3525955, “Glucuronidation of the red clover isoflavone irilone by liver microsomes from different species and human UDP-glucuronosyltransferases” (Drug Metab Dispos, 2011)
